The values below come from US20050152903A1 (CRITICAL THERAPEUTICS, published 2005).

B1: 2E11 HMGB1 mAb (antibody, V domains shown)
VH: QVQLQQSGPELVRPGTSVKISCKTSGYTFLTYWMNWVKQRPGQGLEWIGQIFPASDNTYYNEMFKDKATLTVDTSSSTAYIHLSSLTSEDTAVYFCAREDSMDYWGQGTSVTVSS
VL: DIQMTQTTSSLSASLGDRVTVSCSASRGINNYLNWYQQKPDGTVKFLIYYTSSLHSGVPSRFSGSGSGTDYSLTISNLEPEDIATYYCQQYSKLPWTFGGGTKLEFK
notes: Murine hybridoma monoclonal antibody (ATCC PTA-5431); also called 2E111-1-1-2; CT3-2E11
B2: 2G7 HMGB1 mAb (antibody, V domains shown)
VH: QVQLQQSGAELVRPGSSVKISCKASGYAFSSYWMNWVKQRPGQGLEWIGQIYPGDGDTNYNGKFKGKATLTSDKSSSTAYMQLSSLTSEDSAVYFCARREPYGSYVGFGFWGQGTLVTVSA
VL: ENVLTQSPAIMSASPGEKVTMTCSASSSVSYMHWYQQKSSTSPKLWIYDTSKLASGVPGRFSGSGSGNSYSLTISSMEAEDVATYYCFQGSGYPPTFGGGTKLEIK
notes: Murine hybridoma monoclonal antibody (ATCC PTA-5432); also called 3-2G7-1-1-1; CT3-2G7
B4: peptide corresponding to amino acid residues 151-168 of human HMGB1 (peptide)
peptide: LKEKYEKDIAAYRAKGKP
modifications: also: biotinylated (position not given here)
B5: peptide corresponding to amino acid residues 61-78 of human HMGB1 (peptide)
peptide: EDMAKADKARYEREMKTY
modifications: also: biotinylated (position not given here)
notes: also called HMGB1 61-78 peptide; huHMGB1-61-78-B
B6: peptide corresponding to amino acid residues 46-63 of human HMGB1 (peptide)
peptide: SERWKTMSAKEKGKFEDM
modifications: also: biotinylated (position not given here)
notes: also called HMGB1 46-63 peptide; huHMGB1-46-63-B

Assay [1] addresses T1, peptide corresponding to amino acid residues 143-160 of human HMGB1 (human).
T1 construct: Non-biotinylated
T1 peptide: PYEKKAAKLKEKYEKDIA
Description: peptide ELISA. On the technique in general: An ELISA detects its analyte on a solid surface through an enzyme-linked reagent.

For assay [2], the target named is T2, peptide corresponding to amino acid residues 157-174 of human HMGB1 (human).
T2 construct: Non-biotinylated; also called HMGB1 157-174 peptide; Human HMGB1-157-174
T2 peptide: KDIAAYRAKGKPDAAKKG
Description: peptide ELISA.

In assay [3] the target is B4. The assay can be described thus: peptide ELISA (FIG. 13B). As to the method: (§1) Biotinylated peptides bound to React-Bind Streptavidin-Coated Plates (Pierce, Rockford, Ill., Catalog # 15501) and non-biotinylated peptides bound to poly-D-lysine coated ELISA plates were used in anti-peptide ELISAs. Biotinylated peptides corresponding to particular 18 amino acid regions of human HMGB1, as well as a longer peptide corresponding to amino acid residues 9-85 of human HMGB1, were prepared and analyzed for binding to particular anti-HMGB1 monoclonal antibodies by ELISA. These peptides, and their respective sequences, are depicted in FIG. 13A. Poly-D-lysine coated plates were prepared by adding 60-100 μl/well of 0.1 mg/ml solution of poly-D-lysine in water. Plates were then incubated at room temperature for 5 minutes and were rinsed with water to remove the solution.
(§2) Briefly, using the molecular weight of the respective peptide, 1 mM peptide solutions were prepared in pyrogen-free water and diluted in 1× phosphate buffered saline. Plate wells were washed three times with 200 μl of PBS and 100 μl of the various peptide solutions were added to designated wells. The plates were then covered and incubated for 60 minutes at room temperature. The wells were then washed three times with PBS, 0.05% polyoxyethylenesorbitan (referred to herein as Tween 20™) using a volume greater than 100 μl. 200 μl of blocking buffer (5% nonfat dry milk in PBS, 0.05% Tween 20™) was added to each of the wells. The plates were covered and incubated for 60 minutes at room temperature. The wells were then washed three times with PBS, 0.05% Tween 20™ using a volume greater than 100 μl.

Assay [4] deals with T3, recombinant rat HMGB1 (rat, UniProt P63159 1-215).
T3 sequence: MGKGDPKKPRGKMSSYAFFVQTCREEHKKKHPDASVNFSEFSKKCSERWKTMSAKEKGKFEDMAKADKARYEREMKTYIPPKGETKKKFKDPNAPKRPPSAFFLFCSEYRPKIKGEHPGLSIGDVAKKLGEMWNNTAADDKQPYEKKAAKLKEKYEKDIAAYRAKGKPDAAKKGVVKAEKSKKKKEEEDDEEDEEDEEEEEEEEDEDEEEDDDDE
The assay can be described thus: sandwich ELISA, mAb as capture antibody, polyclonal antibody or 6E6 as detector. The protocol:
In the first method, ELISA plates were coated with a number of purified anti-HMGB1 mAbs (e.g., 2E11 HMGB1 mAb, 2G5 HMGB1 mAb, 2G7 HMGB1 mAb, 6E6 HMGB1 mAb), and incubated overnight at 4° C. The plates were then blocked with PBS, 1% BSA for one hour at 37° C. After washing, recombinant rat HMGB1 was added at the indicated concentrations, and the plates were incubated at room temperature for 1 hour. The plates were then washed and incubated with rabbit polyclonal antibodies against HMGB1 at 2 μg/ml (see U.S. Pat. Nos. 6,303,321, 6,448,223 and 6,468,533). After 1 hour at room temperature, the plates were washed and incubated for 30 minutes with goat anti-rabbit Ig-HPR (Jackson ImmunoResearch Laboratories, West Grove, Pa.) diluted at 1:1000 in PBS. After washing, the plates were developed with TMB (Invitrogen, San Diego, Calif.) and absorbance at 655 nm was measured using a plate reader.
As depicted in FIGS. 14 and 15, two different ELISA methods were used to examine the properties of particular anti-HMGB1 monoclonal antibodies. In one method, HMGB1 monoclonal antibodies 2E11 HMGB1 mAb, 2G5 HMGB1 mAb, 2G7 HMGB1 mAb, and 6E6 HMGB1 mAb, were used as capture antibodies and a polyclonal HMGB1 antibody was used as the detector antibody. […]

The target of assay [5] is T4, peptide corresponding to amino acid residues 46-63 of human HMGB2 (human, also: biotinylated (position not given here)).
T4 construct: also called HMGB2 46-63 peptide; huHMGB2-46-63-B
T4 peptide: SERWKTMSAKEKSKFEDM
Description: peptide ELISA.

In assay [6] the target is T5, peptide consisting of a scrambled sequence of amino acid residues 46-63 of human HMGB1.
T5 construct: Non-biotinylated; scrambled control; also called Human HMGB1-46-63-scr
T5 peptide: RMKEESSAKDGWFTEMKK
The assay can be described thus: peptide ELISA.

Assay [7] concerns the target T6, peptide corresponding to amino acid residues 40-57 of human HMGB1 (human).
T6 construct: Non-biotinylated; also called HMGB1 40-57 peptide; Human HMGB1-40-57
T6 peptide: EFSKKCSERWKTMSAKEK
The assay can be described thus: peptide ELISA.

Assay [8] has as its target T7, peptide corresponding to amino acid residues 53-70 of human HMGB1 (human).
T7 construct: Non-biotinylated; also called HMGB1 53-70 peptide; huHMGB1-53-70
T7 peptide: SAKEKGKFEDMAKADKAR
Description: peptide ELISA (FIGS. 22 and 23). As to the method: as §1
(§3) Briefly, using the molecular weight of the respective peptide, 1 mM peptide solutions were prepared in pyrogen-free water and diluted in 1× phosphate buffered saline. Plate wells were washed three times with 200 μl of PBS and 100 μl of the various peptide solutions were added to designated wells. The plates were then covered and incubated for 60 minutes at room temperature. The wells were then washed three times with PBS, 0.05% polyoxyethylenesorbitan (referred to herein as Tween 20™) using a volume greater than 100 μl. […]

In assay [9] the target is T8, CHO HMGB2 (Chinese hamster (CHO cells), UniProt A0A8C2QD03 1-210).
T8 construct: also called non-recombinant (natural) HMGB2 from Chinese Hamster Ovary (CHO) cells
T8 sequence: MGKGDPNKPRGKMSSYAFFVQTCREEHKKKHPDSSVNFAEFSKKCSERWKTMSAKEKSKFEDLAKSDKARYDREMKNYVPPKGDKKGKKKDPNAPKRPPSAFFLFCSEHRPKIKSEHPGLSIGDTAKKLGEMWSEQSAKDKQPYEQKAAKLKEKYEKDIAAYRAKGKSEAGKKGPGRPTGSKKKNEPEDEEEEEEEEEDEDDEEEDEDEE
Description: Western blot. (In general: Immunoblotting shows a protein as a band on a membrane.)

Assay [10] concerns the target B6. Description: peptide ELISA (FIG. 13B). The protocol:
as §1, §2

Assay [11] deals with T7, peptide corresponding to amino acid …. The assay can be described thus: peptide ELISA.
The target in assay [12] is T9, peptide consisting of a scrambled sequence of amino acid residues 61-78 of human HMGB1.
T9 construct: Non-biotinylated; scrambled control; also called Human HMGB1-61-78_scr
T9 peptide: AKDYMEARKDTEYKMARE
Description: peptide ELISA.

Assay [13] concerns the target B5. Description: peptide ELISA (FIG. 13B). As to the method:
as §1, §2

Assay [14] has as its target T10, peptide corresponding to amino acid residues 67-84 of human HMGB1 (human).
T10 construct: Non-biotinylated; also called HMGB1 67-84 peptide; Human HMGB1-67-84
T10 peptide: DKARYEREMKTYIPPKGE
Description: peptide ELISA (FIG. 24). The protocol:
as §1, §3

In assay [15] the target is B1. The assay can be described thus: competition ELISA: peptide in solution with the antibody, plate-bound HMGB1.
The target in assay [16] is B2. The assay can be described thus: competition ELISA: peptide in solution against plate-bound recombinant rat HMGB1. The protocol:
(§4) HMGB1 peptide binding experiments using 2G7 HMGB1 mAb were conducted. As described, biotinylated synthetic peptides corresponding to either amino acid residues 46-63 of human HMGB1 or amino acid residues 61-78 of human HMGB1 were prepared and analyzed for binding to 2G7 HMGB1 mAb (2G7) by ELISA. Briefly, 2 μg/ml of 2G7 HMGB1 mAb was added to plate wells containing either the HMGB1 46-63 peptide or the HMGB1 61-78 peptide at each of the indicated concentrations (0, 0.33, 1, 3, 9, 27, 81 and 243 μM peptide) for one hour at 25° C. to prepare antibody-peptide samples. ELISA plates were coated with 10 μg/ml of recombinant rat HMGB1, and incubated overnight at 4° C. The plates were then blocked with reconstituted milk for one hour at 37° C. Antibody-peptide samples were then added at the concentrations listed above and incubated for one hour at room temperature. The plates were then washed and incubated with Streptavidin-HRP. After washing, the plates were developed with TMB (Invitrogen, San Diego, Calif.) and absorbance at 655 nm was measured using a plate reader.

Assay [17] has as its target B1. Description: competition ELISA: peptide in solution against plate-bound HMGB1.
The target of assay [18] is B2. The assay can be described thus: competition ELISA: peptide (0.33-243 µM) with 2 µg/ml antibody, plate coated with recombinant rat HMGB1. The protocol: as §4

Where no end group is shown, it is not given here.

On to B1, for which the results for the binding result in assay [1], in assay [2] and in [3] were “no binding (tested: 2 µg/ml antibody)”, “no binding (tested: 2 µg/ml antibody)” and “binds”, respectively.

For B2, the binding result in [4] is given as “binds”; in assay [5] it was “no binding (tested: 2 µg/ml antibody)”; in assay [6], “no binding (tested: 2 µg/ml antibody)”; in assay [7], “no binding (tested: 2 µg/ml antibody)”; in assay [8], “binds”; in assay [9] it was “no binding (tested: 2 µg/ml antibody)”. For the same molecule, the binding result in assay [10] is listed as “binds”.

B3: 6E6 HMGB1 mAb (antibody, V domains shown)
VH: EVQLQQSGAELVKPGASVKLSCTASGFNIKDTYMHWVKQRPEQGLEWIGRIDPANGNTKYDPKFQGKATITADTSSNTAYLQLSSLTSEDTAVYYCARGAYWGQGTLVTVSA
VL: DIVLTQSPASLAVSLGQRATISCKASQSVDYDGDSYMNWYQQKPGQPPKLLIYAASNLESGIPARFSGSGSGTDFTLNIHPVEEEDAATYYCQQSNEDPFTFGSGTKLEIK
notes: Murine hybridoma monoclonal antibody (ATCC PTA-5433); also called 6E6-7-1-1; CT3-6E6
Turning to B3, the binding result is “binds” in [4]; “no binding (tested: 2 µg/ml antibody)” in [11]; “no binding (tested: 2 µg/ml antibody)” in [12]; “binds” in assay [13]; “binds” in [14].

On to B4, for which, in [15], the binding result is given as “binds”.

With B5, the binding result in assay [16] is recorded as “no binding (tested: up to 243 µM peptide)”.

For B6, the binding result was “no binding” in [17] and “binds” in [18].
